Laboratory results published in patent publication US20190330347A1 (published 2019).

Target: biotin-labeled PD-1 antigen (UniProt Q15116 25-167, biotin-labeled (site not stated))
Assay: BLI (Fortebio)

Chain of biotin-labeled PD-1 antigen (Q15116 25-167): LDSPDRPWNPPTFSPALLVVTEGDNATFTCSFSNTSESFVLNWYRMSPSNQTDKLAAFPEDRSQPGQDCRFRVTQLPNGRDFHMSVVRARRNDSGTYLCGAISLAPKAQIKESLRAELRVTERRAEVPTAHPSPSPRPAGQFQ

- Kd: 103 pM
B1: humanized H8L2 antibody (IgG-like antibody H8L2 against PD-1) (antibody)
heavy: EVQLVQSGGGLVQPGGSLKLSCAASGFTFSSYGMSWVRQAPGKGLDWVATISGGGRDTYYPDSVKGRFTISRDNSKNNLYLQMNSLRAEDTALYYCARQKGEAWFAYWGQGTLVTVSSASTKGPSVFPLAPCSRSTSESTAALGCLVKDYFPEPVTVSWNSGALTSGVHTFPAVLQSSGLYSLSSVVTVPSSSLGTKTYTCNVDHKPSNTKVDKRVESKYGPPCPPCPAPEFLGGPSVFLFPPKPKDTLMITRTPEVTCVVVDVSQEDPEVQFNWYVDGVEVHNAKTKPREEQFNSTYRVVSVLTPLHQDWLNGKEYKCKVSNKGLPSSIEKTISKAKGQPREPQVYTLPPSQEEMTKNQVSLTCLVKGFYPSDIAVEWESNGQPENNYKTTPPVLDSDGSFFLYSRLTVDKSRWQEGNVFSCSVMHEALHAHYTQKSLSLSLGK
light: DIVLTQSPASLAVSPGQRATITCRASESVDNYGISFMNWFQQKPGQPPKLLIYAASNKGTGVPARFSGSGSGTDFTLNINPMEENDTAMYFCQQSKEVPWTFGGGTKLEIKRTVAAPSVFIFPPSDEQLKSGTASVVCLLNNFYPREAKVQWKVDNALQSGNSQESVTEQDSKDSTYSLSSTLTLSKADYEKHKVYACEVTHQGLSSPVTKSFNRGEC
